Patent US20240392040A1 (AKESO HUIKE SHANGHAI, published 2024)

B1: 14C12H1L1(hG1TM) (antibody, human IgG1, kappa, V domains shown)
VH: EVQLVESGGGLVQPGGSLRLSCAASGFAFSSYDMSWVRQAPGKGLDWVATISGGGRYTYYPDSVKGRFTISRDNSKNNLYLQMNSLRAEDTALYYCANRYGEAWFAYWGQGTLVTVSS
VL: DIQMTQSPSSMSASVGDRVTFTCRASQDINTYLSWFQQKPGKSPKTLIYRANRLVSGVPSRFSGSGSGQDYTLTISSLQPEDMATYYCLQYDEFPLTFGAGTKLELKR
notes: Humanized anti-PD-1 IgG1 with L234A, L235A, G237A (EU numbering)
B2: BS-PL023C (bispecific antibody, human IgG1, kappa)
heavy: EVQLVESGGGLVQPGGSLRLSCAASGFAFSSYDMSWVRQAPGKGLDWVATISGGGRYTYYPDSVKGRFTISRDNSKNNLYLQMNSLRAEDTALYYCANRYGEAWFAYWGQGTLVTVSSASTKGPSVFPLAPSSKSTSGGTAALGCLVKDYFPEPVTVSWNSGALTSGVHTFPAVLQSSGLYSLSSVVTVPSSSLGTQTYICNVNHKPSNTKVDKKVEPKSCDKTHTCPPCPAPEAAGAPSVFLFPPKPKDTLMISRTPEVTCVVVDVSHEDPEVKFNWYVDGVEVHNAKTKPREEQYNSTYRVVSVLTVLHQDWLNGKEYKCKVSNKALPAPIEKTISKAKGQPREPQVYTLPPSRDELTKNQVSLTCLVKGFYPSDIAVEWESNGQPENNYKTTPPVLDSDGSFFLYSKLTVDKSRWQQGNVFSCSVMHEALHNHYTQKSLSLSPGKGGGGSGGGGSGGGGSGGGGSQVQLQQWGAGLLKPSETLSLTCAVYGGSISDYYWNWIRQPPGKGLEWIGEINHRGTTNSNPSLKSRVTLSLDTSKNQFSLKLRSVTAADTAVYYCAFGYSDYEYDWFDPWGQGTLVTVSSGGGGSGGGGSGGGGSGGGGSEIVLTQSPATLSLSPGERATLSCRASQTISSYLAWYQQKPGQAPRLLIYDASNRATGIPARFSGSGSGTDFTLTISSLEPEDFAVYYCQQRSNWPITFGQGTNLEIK
light: DIQMTQSPSSMSASVGDRVTFTCRASQDINTYLSWFQQKPGKSPKTLIYRANRLVSGVPSRFSGSGSGQDYTLTISSLQPEDMATYYCLQYDEFPLTFGAGTKLELKRTVAAPSVFIFPPSDEQLKSGTASVVCLLNNFYPREAKVQWKVDNALQSGNSQESVTEQDSKDSTYSLSSTLTLSKADYEKHKVYACEVTHQGLSSPVTKSFNRGEC
notes: Morrison form (IgG-scFv): an scFv at the C-terminus of each of the two heavy chains
B3: Bs-PLV02 (bispecific antibody, human IgG4 S228P, kappa, F234A L235A)
heavy: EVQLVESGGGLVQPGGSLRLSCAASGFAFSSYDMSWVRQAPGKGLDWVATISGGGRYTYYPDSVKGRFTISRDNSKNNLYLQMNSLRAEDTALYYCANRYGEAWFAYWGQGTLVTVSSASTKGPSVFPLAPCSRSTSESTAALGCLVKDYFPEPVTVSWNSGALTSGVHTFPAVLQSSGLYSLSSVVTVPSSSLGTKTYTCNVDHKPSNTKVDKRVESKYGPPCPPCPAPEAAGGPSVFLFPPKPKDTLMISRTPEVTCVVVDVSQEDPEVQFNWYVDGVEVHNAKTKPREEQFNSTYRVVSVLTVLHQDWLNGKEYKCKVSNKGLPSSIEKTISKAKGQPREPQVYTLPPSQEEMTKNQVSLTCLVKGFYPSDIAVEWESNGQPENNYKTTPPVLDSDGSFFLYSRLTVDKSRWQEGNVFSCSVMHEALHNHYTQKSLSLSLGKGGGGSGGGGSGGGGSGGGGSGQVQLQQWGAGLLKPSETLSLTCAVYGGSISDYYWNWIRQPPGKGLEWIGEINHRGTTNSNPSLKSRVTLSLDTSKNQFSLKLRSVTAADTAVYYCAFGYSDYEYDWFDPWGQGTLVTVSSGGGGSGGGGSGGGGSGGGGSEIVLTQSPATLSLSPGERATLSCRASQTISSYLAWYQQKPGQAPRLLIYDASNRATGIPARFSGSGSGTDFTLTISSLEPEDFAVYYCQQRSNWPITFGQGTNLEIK
light: B2 light
notes: as for B2

Key:
[1] = target: T1, PD-1 on 293T-PD1 membrane surface (full-length human PD-1 on cells) (human, UniProt Q15116 25-288); test: flow cytometry on 293T-PD1 cells
T1 construct: whole, on cells; the Promega PD-1 effector cells are bought; also called CHO-K1-PD1 cells
Procedure: 100 μL of 1% PBSA was then added to each well, and the mixture was centrifuged at 350×g for 5 min, followed by removal of the supernatant. […] The mixture was mixed gently and uniformly, and then incubated on ice for 1 h. 100 μL of 1% PBSA was added to each well, and the mixture was centrifuged at 350×g for 5 min, followed by removal of the supernatant. Then the plate was washed twice with 200 μL of 1% PBSA. […] The mixture was mixed well and then incubated on ice in the dark for 0.5 h. 100 μL of 1% PBSA was added to each well, and the mixture was centrifuged at 350×g for 5 min, followed by removal of the supernatant. Then the plate was washed twice with 200 μL of 1% PBSA. 400 μL of 1% PBSA was added to each well to resuspend the cell pellets, and the mixture was transferred to a flow cytometry tube for FACSCalibur assay.

human PD-1-mFc = target: T2, human PD-1-mFc (human, UniProt Q15116 25-170, limits assumed); test: indirect ELISA, coated human PD-1-mFc
T2 construct: not shown: mouse IgG Fc (mFc)
Procedure: Then the ELISA plate coated with the antigen was washed once with PBST and then blocked with a PBS solution containing 1% BSA as a blocking solution at 37° C. for 2 h. After blocking, the ELISA plate was washed 3 times with PBST. The ELISA plate containing the test antibodies was incubated at 37° C. for 30 min and then washed 3 times with PBST.
(§1) After incubation, the plate was washed 4 times with PBST, TMB (Neogen, 308177) was added for chromogenesis in the dark for 5 min, and then a stop solution was added to terminate the chromogenic reaction. The ELISA plate was put into an ELISA plate reader immediately, and the OD value of each well in the ELISA plate was read at 450 nm. The data were analyzed and processed by SoftMax Pro 6.2.1.

[2] = target: T1, PD-1 on 293T-PD1 membrane surface …; test: competitive flow cytometry on 293T-PD1 cells, competitor PDL-1-mFc 20 nM
Procedure: 1. […] 100 μL of 1% PBSA was then added to each well, and the mixture was centrifuged and washed. […] 100 μL of a 400-fold diluted FITC goat anti-mouse IgG/IgM antibody (BD, Cat. No. 555988) was added, while 100 μL of 1% PBSA was added for a blank sample. The mixture was mixed well, incubated on ice in the dark for 30 min, washed, and centrifuged. The cells were resuspended and then transferred to a sample loading tube for testing on a flow cytometer.

human PD-1-mFc-Biotin = target: T3, human PD-1-mFc-Biotin (human, UniProt Q15116 25-170, limits assumed, biotin label (site not stated)); test: competitive ELISA, blocking of PD-1-mFc-Biotin binding to coated human PDL1-mFc
T3 construct: not shown: mouse IgG Fc (mFc)
Procedure: After incubation, the ELISA plate was blocked with a PBS solution containing 1% BSA at 37° C. for 2 h. After blocking, the plate was washed three times and dried. The antibody was serially diluted on a dilution plate in a 3-fold dilution ratio to achieve 7 concentrations with 80 nM as the starting concentration (at a final concentration of 40 nM), and a blank control was set. […] Then the mixture was incubated at room temperature for 10 min. Then the mixture after reaction was added to the coated ELISA plate, and the ELISA plate was incubated at 37° C. for 30 min. After incubation, the plate was washed three times with PBST and dried. An SA-HRP (KPL, 14-30-00) working solution was added, and the plate was incubated at 37° C. for 30 min. After incubation, the plate was washed four times and dried. Then TMB (Neogen, 308177) was added in the dark for chromogenesis for 5 min, and then a stop solution was added to terminate the chromogenic reaction. The ELISA plate was put into an ELISA plate reader immediately, and the OD value of each well in the ELISA plate was read at 450 nm. The data were analyzed and processed by SoftMax Pro 6.2.1.

human LAG3-mFc = target: T4, human LAG3-mFc (human, UniProt P18627 23-450, limits assumed); test: indirect ELISA, coated human LAG3-mFc
T4 construct: not shown: mouse IgG Fc (mFc)
T4 sequence (looked up): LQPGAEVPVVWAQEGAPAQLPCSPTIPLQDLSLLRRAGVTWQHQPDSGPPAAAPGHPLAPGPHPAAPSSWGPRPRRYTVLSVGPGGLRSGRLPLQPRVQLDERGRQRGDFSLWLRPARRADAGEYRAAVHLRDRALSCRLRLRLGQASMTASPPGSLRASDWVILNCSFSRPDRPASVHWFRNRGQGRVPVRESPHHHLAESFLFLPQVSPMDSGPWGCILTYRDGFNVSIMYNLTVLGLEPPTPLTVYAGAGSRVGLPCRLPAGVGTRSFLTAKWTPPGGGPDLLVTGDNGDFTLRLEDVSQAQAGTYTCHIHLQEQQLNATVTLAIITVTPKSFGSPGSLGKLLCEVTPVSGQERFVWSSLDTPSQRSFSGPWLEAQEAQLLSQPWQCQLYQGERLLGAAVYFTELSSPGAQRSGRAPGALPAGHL
Procedure: as §1, with “Then the ELISA plate coated with the antigen was washed once with PBST and then blocked with a PBS solution containing 1% BSA as a blocking solution at 37° C. for 2 h. After blocking, the ELISA plate was washed 3 times with PBST. The ELISA plate containing the test antibodies was incubated at 37° C. for 30 min and then washed 3 times with PBST. […] After” for “After”

T1 sequence (Q15116 25-288): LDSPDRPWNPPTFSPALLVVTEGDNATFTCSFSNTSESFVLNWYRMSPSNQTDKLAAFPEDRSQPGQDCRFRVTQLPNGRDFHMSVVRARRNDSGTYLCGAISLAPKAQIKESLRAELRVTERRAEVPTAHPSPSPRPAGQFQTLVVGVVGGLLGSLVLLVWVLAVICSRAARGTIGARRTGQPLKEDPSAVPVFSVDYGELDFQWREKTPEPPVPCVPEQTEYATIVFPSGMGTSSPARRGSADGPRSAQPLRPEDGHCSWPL
T2 sequence (Q15116 25-170 limits assumed): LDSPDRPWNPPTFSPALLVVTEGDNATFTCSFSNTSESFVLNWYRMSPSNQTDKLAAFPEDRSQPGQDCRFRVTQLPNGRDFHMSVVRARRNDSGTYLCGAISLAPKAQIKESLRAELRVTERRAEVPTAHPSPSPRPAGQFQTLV
T3 sequence (Q15116 25-170 limits assumed): as above

Row | Binder | EC50 [1] | EC50 (human PD-1-mFc) | EC50 [2] | EC50 (human PD-1-mFc-Biotin) | EC50 (human LAG3-mFc)
1 | B1 | 5.35 nM | 0.02 nM | 2.51 nM | 2.61 nM | 
2 | B2 |  | 0.046 nM |  | 2.98 nM | 0.377 nM
3 | B3 | 6.87 nM | 0.103 nM |  | 5.04 nM | 0.685 nM
